Experimental data: the nanobody polyreactivity screen of Harvey et al. (2022)

Test: yeast display, Sf9 membrane polyspecificity reagent, FACS + sequencing; frameworks hold sequencing errors
In short: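 Nanobodies from a synthetic yeast display library (Saccharomyces cerevisiae BJ5465), induced 36–48 hours with galactose, were stained 1 hour at 4 °C with 10% biotinylated, detergent-solubilized Sf9 membrane reagent, enriched on streptavidin microbeads, then FACS-sorted. Anti-HA (expression) and streptavidin (reagent binding) fluorescence set low and high (top ~1%) gates. Polyreactivity labels come from the gate of origin. Genes were colony-PCR amplified, MiSeq 2 × 250 sequenced and filtered by CDR length.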

Sequence	polyreactivity (PSR sort gate)
QVQLVESGGGLVQAGGSLRLSCAASGSTFLLNAMGWYRQAPGTERELVAAITSSGGTNYADSVKGRFTISRDNAKNTVYLQMNSLKPEDTAVYYCAKDQERVTKGRFYLLEYYWGQGTQVTVSS	low polyreactivity
QVQRVESGGGLFQAGRSLRLSCAASGFIFSTYAMGWYRQAPGKERELVAAISSGGSTYYADSVKGRFTISRDNAKNTVYLQMNSLKPEDTAVDYCAADLGAYWFSYYYWGQGTQLTVSS	high polyreactivity
QVQLVESGGGLVQAGGSLRLSCAASGSIFITYAMGWYRQAPGKERELVAAIRDSGDRTYYADSVKGRFTISRDNAKKTVYLQMNSLKPEDTAVYYCNARWQEPLKYDYWGQGTQVTVSS	low polyreactivity
QVQLVESGGGLVQAGGSLLLSCAASGSIFRYYAMGWSRQAPGKERELVAAISSNGASTYYADSVKGRFTISRDNAKNTVYLQKNSLKPEVSGVYYCAARFRRAPGYYWGQGTQVTVSS	high polyreactivity
QVQLVESGGGLVQAGGSLRLSCAASGRTLDIYTMGWYRQAPGKERELVAAISWSGGSTYYADSVKGRFTISRDNAKNTVYLQMNSLKPEDTAVYYCNRVPISYAGQLEHSLYDFWGQGTQVTVSS	low polyreactivity
QVQLVESGGGLVQAGGSLRLSCAASGIIFYWYAMGWYRQAPGKERELVAAINSGGRTNYADSVKGRFTISRDNAKNTVYLQMNSLKPEDTAVYYCAARANPYVLKYYYWGQGTQVTVSS	high polyreactivity
QVQLVESGGGLVQAGGSLRLSCAASGRTFKLYGMGWYRQAPVKEREFVAAITQGGGSTFYADSVKGRFTISRDNSKNTVYLQMNSLKPEDTAVYYCAARTQIFSRYRGFYSWGQGTQVTVSS	high polyreactivity
QVQLVESGGGLVQAGGSLRLSCAASGSIILAYAMGWYRQAPGKERELVAAITGSGGRTYADSVKGRFTISRDNAKNTVYLEMNSLKPEVTAVYYFAAYYYGNWQGYYWGQGTQVIVSS	low polyreactivity
QVQLVESGGGLVQAGGSLRLSCAASGRTFWYNAMGWYRQAPRKERELVAAISSGSSTKYADSVKGRFTISRDNAKNTVYLQMNSLKPEDTAVYYCARGGWAYCPRYNYWGQGTQVTVSS	high polyreactivity
QVQLVESGGGLVQAGGSLRLSCAASGFTFTKYAMGWYRQAPGKERELVAAISGRGGSTYYADSVKGRFTISRDNAKNTVYLQMNRLKPEDTAVYYCAKYLYTVAGYNYWGQGTQVTVSS	high polyreactivity
QVQLVESGGGLVQAGGSLRLSCAASGSTFDRYTMGWYRQAPGKERELVAAISESDGSTYYADSVKGRFTISRDNAKNTVYLLMNSLKPEDTAVYFCAAEWTHYWWYQYDFWGQGTQVTVSS	high polyreactivity
QVQLVESGGGLVQAGGSLRLSCAASGRTFDGYTLGGYRQAPGKERELVAAISTGGGSTYYADSVKGRFTISRDNAKNTVYVQLNSLKPEDTAVYDCAARGGSYSFRRYNYWGQGTQVTVSS	high polyreactivity
QVQLVESGGGLVQAGGSLRLSCAASGFIFDRYAMGWYRQAPGKERELVAAIDTASSTNYADSVKGRFTISRDNAKNTVDLQMNSLKPEDTAVYYCNASGYYYVIYWKVSNYNYWGQGTQVTVSS	low polyreactivity
QVQLVESGGGLVQAGGSLRLSCAASGITFKAYAMGWYRQAPGKERELVAAINTSGARTYYADSVKGRFTISRDNAKNTVYLQMNSLKTEDTAVYYCNARLHQQEGDDWGQGTQVTVSS	low polyreactivity
QVQLVESGGGLVQAGGSLRLSCAASGYIFAPYAMGWYRQAPGKERELVAAISSGGSTYYADSVKGRFTISRDNAKNTVYLQKNSQKPEDPAVYYCAKRYIYSYYWGQGTQVTVSS	high polyreactivity
QVQLQESGGGLVQASGSIFHEPNMCWYRQAPGKERELVAGISSGANTYYADSVKGRFTISRDNAKNTVYLQMNSLKPEDTAVYHCAVVVHLYTELRYWGQDTQVTVSS	high polyreactivity
QVQLVESGGGLVQAGGSLRLSCAASGSIFVRYTMGWYRQAPGKERELVAGISSRGGSTYYADSVKGRFTISRDNAKNTVYLQMNSLKPEDTAVYYCAATYFRRVVPGYNYWGQGTQVTVSS	high polyreactivity
QVQLVESGGGLVQAGGSLRLSCAASGSTFNVYAMGWYRQAPGKERELVASIRTSGTRTYYADSVKGRFTISRDNAKNTVYLQMNSLKPEDTAVYYCNARYYSNLRRHGGYWGQGTQVTVSS	high polyreactivity
QVQLVESGGGLVQAVGSLRLSCAASGYTFVIYAMGWYRQAPGKERELVAAITTIGGRTYYADSVKGRFTISRDNAKNTVYLQMISLKPEDTAVYYCAADIRSNRLYDGGYWGLGTQVTVSS	low polyreactivity
QVQLVESWGGLVQAGGSLRLSCAASGSIFSDYAMGWYRQARGKERELVAAITQSGGSTYADSVKGRFTISRDNAKNTVYLQMNSLKPDDTAVYYCAADEVPGFGYPPYPWFDYWGQGTQVTVSS	low polyreactivity
QVQLQESGGGLVQAGGSLRLSCAASGNIFLGDTMGWYRQAPGKEREFVAGIARGGNPYYADSVKGRFTISRNNANNTVYLQKNSLKPEDTAVHYCAVQRSHASDYNYWGQGTQVTVSS	low polyreactivity
QVQIVESGGGLVQAGATLRLSCDASGITIEGYAMGWYRQAPGKERELVAAIRSSGTSTYYADSVKGRFTITRDFAKNTVYLQMNSLKPEDTAVYYCNRARSSSRYDYWGQGTQVTVSS	low polyreactivity

Sequence	polyreactivity (PSR sort gate)
QVQLVESGGGLVQAGGSLRLSCAASGRIFAFYARGSSRQAPGKERQLVAVISKSGGTTYYADSVKGRFTISRDNAKNTVYLQMNSLKPEDTAVYYCNKRVFYRHGYSYNYWGQGTQVTVSS	high polyreactivity
QVQLVESGGGLVQAGGTLRLSCAASGRTFAYNAMGWYRQAPGKERELVAAITWSGDSTYYADSVKGRFTISRDNAKKTVYLQRNSLKPEDTAVYYCAADYFGGPSYEFDYWGQGTQVTVSS	low polyreactivity
QVQLVESGGGLVQAGGSLRLSCAASGITFDYYAMGWYRQAPGKERELVAAISGGDSTNYADSVKGRFTISRDNEKNTVYLQMNSLKPEDTAVYYCNVQYSGLYWSYRIDFDYWGQGTQVTVSS	high polyreactivity
QVQLVESGGRLVQGRGSLRLSCAASGRTFHIYDIGWYRQAPGKERELVAAIRGRSGSTYYADSVKGRFTISRDNAKNNDYLQMNSLTPEDNAVYYCAAENLGRFVASEYDYWGQGTQVTVSS	high polyreactivity
QVQRVESGGGLVQAGGSLRISCAASGSITWYYSMGWYRQAPGKERELFAAISDSGGDKYYADSVKGRFTISRDNAKNTVYLQMNSLKPEDTAVYYCNARYSWYGTFGGDYWGQDTQVTVSS	low polyreactivity
QVQLVESGGGLVQAGGSLRLTCAASGNTFYQYAMGWYRQATGKERELVAAISSSGGSTYYADSVKGRFTISRDNAKNTVYLQMNSLKPEDTAVYYCATDKWYGYYYWGQGTQVTVSS	low polyreactivity
QVQLVESGGGLVQAGGSLRLSCAASGFIFKPYDMGWYRQARGKERELVAAISWTGTSTYYADSVKGRFTISRDNAKNTVYLQMNSLKPEDTAVYYCAADFYGGFAHEYWGQGTQVTVSS	low polyreactivity
QVQLVESGGGLDQAGGSLRLSCAASGSIFYRNAMGWYRQAPGKEMELVAAISGRGGSTNYADSVKGRFTISRDNAKNTVYLPMNSLKPEDTAVYYCNRFGVSNILVRGGYWGLGTQVTVSS	high polyreactivity
QVQLVESGGGVVQAGGSLRLSCAASGRIFGGYAMGWYRQAPGKERELVAAISGSGGRTDYADSVKGRFTISRDNAKNTVYLQMNSLKPDDTAVYYCNKGYVYGHEYWGQGTQVTVSS	high polyreactivity
QVQLLESGGGLVQAGGSLRLSCAASGSTIRVNGMGWYRQAPGKERELVAVISWSGGSTYYADSVKGRFTISRDNAKNTVYLQMNSLKPEDTAVYYCNKLIYDEDEYWGQGTQVSVSS	high polyreactivity
QVQLVESGGGLVQAGGSLRLSCAASGFTFTGYAIGWYRQAPGKERELVAAITSNTGGTYYADSVKGRFTISRDNAKNTVYLEMNSLKAEDTAVYYCAAGHSGGQVDTIFQGMDYWGQGTQVTVSS	low polyreactivity
QVQLVESGGGLVQAGGSLRLICAASGRTFAIYAMGWYRQAPGKEREIVAAISWSGGDTYYADSVKGRFTISRDNEKNTVYLQMNSLKPEDTAVYYCAADRYDYSYFGYGAQDYDYWGQGTQLTVSS	low polyreactivity
QVQLVESGGGLVQAGGSLRLSCAASGSILYGNDMGWYRQAPGKERELVATITSSDSTYYADSVKGRFTISRDNAKNTVYLQMNSLKPEDTAVYYCAADSSEWLLKDDYWGQGTQVTVSS	low polyreactivity
QVQLVESGGGLVQAGGSLRISCAASGITFYRYTMGWYRQAPGKERELVAAISRSGSSTYYADSVKGRFTISRDNAKNTVDLQMNSLIPEDTAVYYCASRFGDMGYWGQGTQVTVSA	high polyreactivity
QVQLVESGGGLVQAGGSLRLSCAASGRTFLYYAKGWYRQAPGKERELGAAISSGGSTNYADSVKGRFTISRDNAKNTVYLQMNSLKPEDTAVYYCNADYTSRDTSDVIYEYDYWGQGTQVTVSS	low polyreactivity
QDQLVESGGGLVQAGGSLRLSCAASGSTFSRNAMGWYRQAPGKERELVAAISWRGGRTYYADSVKGRFTISRDNAKNTVYLQMNSLKPEDTAVYYCAAEHKYRYDYWGQGTQVTVSS	low polyreactivity
QVQLVESGGGLVQAGGSLRLSCAASGSILVPYSMGWYRQAPGKERELVAAISWGGGSTYYADSVKGRFTISRDNAKNTVYLQMNSLKPEDTAVYYCAADFGYYDYDYWGQGTQVTVSS	low polyreactivity
QVQLVESGGGLVQAGGSLRLSCAASGITFSHNAMGWYRQAPGKERELVAAITRSGGSTYYADSVKGRFTISRDNAKNTVYLQMNSLKPEDTAVYYCATEDYYRQYGYWSLSRMDHWGQGTQVTVSS	low polyreactivity
QVQLVESGGGLVQAGGSLRLSCAASGYTFYYNTMGWYRQAPGKERELVARINSAGRTNYADSVKGRFTISRDNAKNTVYLQMNSLKPKDTAVYYCAADGPANPDELKVNDFDYWGQGTQVTVSS	high polyreactivity
HLQLEESGVGLVQAGGSLRLSCAASGSTFTFNAMGWYRQAPAKSRELVAAIRWNGESTYYADSVKGRFSISRDNAKNTVYIQMNSLNPEDTAVYYCAATRLLSKSGDRYYYWGQGTQVTVSS	low polyreactivity
QDQLVESGGGLVQAGGSLRLTCAASGSTFNYYAMGWYRQAPGKERELVAAISRSGGRTYYADSVKGRFTISRDNAKTTVYLQMNSLKEEDTAVYYCAAQVLTTGGEGGYWGQGTQVTVSS	high polyreactivity
